# Tested on: SOD-2 mRNA in NTM-115 cells
# Test: RT-qPCR of SOD-2 mRNA in NTM-115 TM cells treated with SAA
# Format: cell-based
# Details: rhSAA 40 ug/ml, 24 hr, compared to untreated cells, FIG. 4
# Method: SOD-2 mRNA levels in FIG. 1 were measured using real-time quantitative PCR (RT-qPCR). In the RT-qPCR protocol used in one embodiment of the present invention, total RNA was extracted from cultured TM cells or from RNAlater-preserved ocular tissues by using a commercial kit of RNAqueous-4 PCR (Ambion, Austin, Tex.) according to the manufacturer's instructions. RNA quality was assessed by agarose gel electrophoresis or with a 2100 Bioanalyer (Agilent). cDNA was synthesized using MultiScribe reverse transcriptase and random hexamers (PE Applied Biosystems, Foster City, Calif.). Real-time PCR was performed using the ABI Prism 7700 Sequence Detection System according to the manufacturer's instructions (Applied Biosystems, Foster City, Calif.). […] Relative RNA concentrations were determined by comparison to a standard curve generated by different dilutions of TM cell cDNA. […]
# In this embodiment, a TM cell line is treated with SAA, which causes overexpression of SOD-2. After addition of the test compound or appropriate vehicle control, the levels of SOD-2 are measured in the test and control replicates via qPCR using the protocol given in the description accompanying FIG. 1. […]
molecule,measurement,value
"serum amyloid A (protein, UniProt P0DJI8 19-122, looked up, acute-phase reactant protein; recombinant human SAA used to induce SOD-2 overexpression in TM cells) Serum amyloid A-1 protein: RSFFSFLGEAFDGARDMWRAYSDMREANYIGSDKYFHARGNYDAAKRGPGGAWAAEVITDARENIQRFFGHGAEDSLADQAANEWGRSGKDPNHFRPAGLPEKY",SOD-2 mRNA levels,increased levels of SOD-2 mRNA

# — patent US7807363B2, “Superoxide dismutase-2 expression for glaucoma diagnosis” (Alcon Research, Ltd., priority 2006, dated 2010)
